Assay results reported in paper PMC7953826 (Nature cell biology, 2020).

Target: actin (rabbit skeletal muscle G-actin, polymerised to F-actin) (rabbit, UniProt P68135 1-377)
Experiment: co-sedimentation

Kd: 190 ± 30 nM
B1: Drosophila dynamin shibire (Shi) (enzyme)
chain: MDSLITIVNKLQDAFTSLGVHMQLDLPQIAVVGGQSAGKSSVLENFVGKDFLPRGSGIVTRRPLILQLINGVTEYGEFLHIKGKKFSSFDEIRKEIEDETDRVTGSNKGISNIPINLRVYSPHVLNLTLIDLPGLTKVAIGDQPVDIEQQIKQMIFQFIRKETCLILAVTPANTDLANSDALKLAKEVDPQGVRTIGVITKLDLMDEGTDARDILENKLLPLRRGYIGVVNRSQKDIEGRKDIHQALAAERKFFLSHPSYRHMADRLGTPYLQRVLNQQLTNHIRDTLPGLRDKLQKQMLTLEKEVEEFKHFQPGDASIKTKAMLQMIQQLQSDFERTIEGSGSALVNTNELSGGAKINRIFHERLRFEIVKMACDEKELRREISFAIRNIHGIRVGLFTPDMAFEAIVKRQIALLKEPVIKCVDLVVQELSVVVRMCTAKMSRYPRLREETERIITTHVRQREHSCKEQILLLIDFELAYMNTNHEDFIGFANAQNKSENANKTGTRQLGNQVIRKGHMVIQNLGIMKGGSRPYWFVLTSESISWYKDEDEKEKKFMLPLDGLKLRDIEQGFMSMSRRVTFALFSPDGRNVYKDYKQLELSCETVEDVESWKASFLRAGVYPEKQETQENGDESASEESSSDPQLERQVETIRNLVDSYMKIVTKTTRDMVPKAIMMLIINNAKDFINGELLAHLYASGDQAQMMEESAESATRREEMLRMYRACKDALQIIGDVSMATVSSPLPPPVKNDWLPSGLDNPRLSPPSPGGVRGKPGPPAQSSLGGRNPPLPPSTGRPAPAIPNRPGGGAPPLPGGRPGGSLPPPMLPSRVSGAVGGAIVQQSGANRYVPESMRGQVNQAVGQAAINELSNAFSSRFK
